Experimental data as given in patent publication US20210155689A1 (SHANGHAI PHARMAEXPLORER, published 2021).

T1: human LAG-3 protein with hFc tag (hLAG-3-hFc protein) (human, UniProt P18627 23-450)
T1 construct: also called immunogen 1; LAG-3 extracellular domain protein; not shown: human IgG Fc fragment (hFc) of the pCpC vector
T1 sequence: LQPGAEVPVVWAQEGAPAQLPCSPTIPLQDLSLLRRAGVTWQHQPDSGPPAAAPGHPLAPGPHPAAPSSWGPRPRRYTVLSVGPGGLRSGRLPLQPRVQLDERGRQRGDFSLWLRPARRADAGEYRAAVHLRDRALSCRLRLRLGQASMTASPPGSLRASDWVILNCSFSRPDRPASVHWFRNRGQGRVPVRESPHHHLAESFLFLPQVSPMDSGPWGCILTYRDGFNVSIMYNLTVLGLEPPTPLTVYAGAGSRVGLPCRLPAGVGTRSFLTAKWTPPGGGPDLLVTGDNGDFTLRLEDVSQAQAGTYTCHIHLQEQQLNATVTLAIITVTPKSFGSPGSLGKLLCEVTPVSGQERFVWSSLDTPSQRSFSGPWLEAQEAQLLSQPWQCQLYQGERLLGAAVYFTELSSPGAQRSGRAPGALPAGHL

T2: mouse LAG-3 protein with hFc tag (mLAG-3-hFc protein) (mouse; human, UniProt Q61790 24-442)
T2 construct: Made in HEK293 cells; also called mouse LAG-3 extracellular domain protein; not shown: human IgG Fc fragment (hFc) of the pCpC vector
T2 sequence: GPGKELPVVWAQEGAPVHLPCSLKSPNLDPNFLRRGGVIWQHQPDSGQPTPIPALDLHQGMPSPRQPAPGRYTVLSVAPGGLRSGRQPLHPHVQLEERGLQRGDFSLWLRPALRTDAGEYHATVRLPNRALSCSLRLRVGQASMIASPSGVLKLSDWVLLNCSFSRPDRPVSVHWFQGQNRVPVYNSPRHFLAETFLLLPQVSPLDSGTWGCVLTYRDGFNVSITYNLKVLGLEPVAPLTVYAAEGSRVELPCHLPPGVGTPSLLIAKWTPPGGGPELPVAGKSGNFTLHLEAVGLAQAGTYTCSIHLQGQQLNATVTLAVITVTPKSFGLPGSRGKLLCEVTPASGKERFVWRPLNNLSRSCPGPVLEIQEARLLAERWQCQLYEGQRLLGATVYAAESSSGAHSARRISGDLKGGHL

T3: hFc tagged monkey LAG-3 protein (cLAG-3-hFc protein) (monkey; human)
T3 construct: Made in HEK293 cells; also called monkey LAG-3 extracellular domain protein; not shown: human IgG Fc fragment (hFc) of the pCpC vector
T3 chain: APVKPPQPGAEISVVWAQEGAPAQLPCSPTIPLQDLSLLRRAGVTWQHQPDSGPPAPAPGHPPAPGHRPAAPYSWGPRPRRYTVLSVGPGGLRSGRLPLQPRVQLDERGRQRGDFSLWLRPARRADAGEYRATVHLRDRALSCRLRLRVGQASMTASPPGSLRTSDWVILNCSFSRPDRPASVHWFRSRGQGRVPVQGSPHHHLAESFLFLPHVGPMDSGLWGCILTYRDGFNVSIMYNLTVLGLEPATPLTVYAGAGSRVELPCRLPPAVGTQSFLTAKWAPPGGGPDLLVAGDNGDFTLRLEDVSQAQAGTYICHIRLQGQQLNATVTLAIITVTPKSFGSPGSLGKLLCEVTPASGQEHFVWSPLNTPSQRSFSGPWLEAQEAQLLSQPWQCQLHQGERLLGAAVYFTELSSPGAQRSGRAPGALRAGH


How the values were obtained:
[1] = biological target: T1, human LAG-3 protein with hFc tag …; assay: ELISA, hLAG-3-hFc coated; 0.0067 nM
Description: (§1) The plate was sealed with plastic film and incubated overnight at 4° C. The plate was washed 2 times with the plate washing solution (PBS+0.01% Tween20) on the next day, and added with the blocking solution (PBS+0.01% Tween20+1% BSA) and blocked at room temperature for 1-2 hours. The blocking solution was poured out, and the plate was added with 50-100 μl of the antibody sample to be tested to each well, incubated at 37° C. for 1-2 hours, and washed 2-3 times with a plate washing solution (PBS+0.01% Tween20). HRP (horseradish peroxidase) labeled secondary antibody was added, and the plate was incubated at 37° C. for 1-2 hours, and washed 2-3 times with a plate washing solution (PBS+0.01% Tween20). 100 μl of TMB substrate was added to each well. After incubated at room temperature for 15-30 minutes, the plate was added with 100 μl of stop solution (1.0N HCl) to each well.

[2] = biological target: T2, mouse LAG-3 protein with hFc tag …; assay: ELISA, mLAG-3-hFc coated; 0.0007 nM
Description: as §1

[3] = biological target: T3, hFc tagged monkey LAG-3 protein …; assay: ELISA, cLAG-3-hFc coated; 0.0001 nM
Description: as §1

| Binder | OD450 [1] [OD450] | OD450 [2] [OD450] | OD450 [3] [OD450] |
| --- | --- | --- | --- |
| 556F6B8 (LAG-3 mouse-human chimeric antibody) (antibody, V domains shown, also called 556F8B8) VH: RVQLKQSGPGLVQPSQSLSITCTVSGFSLIKYGVHWVRQSPGEGLEWLGVIWRGGITDYNAAFMSRLSITKDNSKSQVFFKMNSLQADDTAIYYCAKWDGPLAMDYWGQGTSVTVSS VL: DIVMTQSHKFLSTSVGDRVSITCKASQDVGTTVAWYQQKPGQSPKLLIYWASTRHTGVPDRFTGSGSGTDFTLTISNVQSEDLADYFCQQYSSYPYTFGGGTKLEIK | 0.38 | 0.08 | 0.18 |
| 105F1E10 (LAG-3 mouse-human chimeric antibody) (antibody, V domains shown) VH: EVQLQQSGPELVKPGASVKMSCRASGYTFTDFKMHWMKQSHGKSLEWIGYIAPNNGGTAYNQKFRGKATLTVNESSNTAYMELRSLTSEDSAVYYCVDWDDVDYWGQGTTLTVSS VL: DIKMTQSPSSMYASLGERVTITCKASQDINSYLSWFQQKSGKSPKTLIYRANRLVDGVPSRFSGSGSGQDYSLTISSLEYEDMGIYYCLQYVEFPLTFGAGTKLELK | 0.3 | 0.08 | 0.14 |
| 405B8H3 (LAG-3 mouse-human chimeric antibody) (antibody, V domains shown, also called mouse-human chimeric antibody 405B8H3) VH: QVQLQQSGAELVRPGASVTLSCKASGYTFTDYEMHWVKQTPVHGLEWIGATDPETGNSAYNQKFKGKAIMTADKSSSTAYMELRSLTSEDSAVYYCISTGWNDWGQGTSLTVSS VL: DIKMTQSPSSMYASLGERVTITCKASQDINSYLSWFQQKPGKSPKTLIYRADRLLDGVPSRFSGSGSGQDYSLTISSLEYGDMGIYYCLQYDEFPYTFGGGTKLEIK | 0.57 | 0.08 | 0.15 |
| 409B11E12 (LAG-3 mouse-human chimeric antibody) (antibody, V domains shown) VH: QVQLQQSGAELVRPGASVTLSCKASGYTFTDYEMHWVKQTTVHGLEWIGATDPETSYSAYNQKFKGKAILTADKSSSTAYMELRSLTSEDSAVYYCIATGWNDWGQGTSLTVSS VL: DLKMTQSPSSMYASLGERVTITCKASQDINSYLSWFQQKPGKSPKTLIYRANRLLDGVPSRFSGSGSGQDYSLTISSLEYEDMGIYYCLQYDEFPYTFGGGTKLEIK | 0.47 | 0.08 | 0.14 |
| 409D4E10 (LAG-3 mouse-human chimeric antibody) (antibody, V domains shown) VH: QVQLQQSGAELVRPGASVTLSCKASGNTFTDYEMHWVKQTPVHGLEWIGATDPETDNTAYNQKFKGKAILTTDKSSSTAYMELRSLTSEDSAVYYCITSGWNDWGQGTSLTVSS VL: DIKMTQSPSSMYASLGERVTITCKASQDINSYLSWFQQKPGKSPKTLIYRANRLLDGVPSRFSGSGSGQDYSLTISSLEYEDMGIYYCLQYNEFPYTFGGGTKLEIK | 0.63 | 0.13 | 0.19 |
